Experiment [1] deals with T1, human FOLR1 expressed on SKOV-3 ovarian carcinoma cells (human, UniProt P15328 25-234).
T1 construct: Naturally expressed receptor on SKOV-3 cells; also called human FOLR1pos SKOV-3 cancer cells; human FOLR1-expressing cell line SKOV-3
As to the kind of experiment: cellular retention on SKOV-3 cells: 10 nM 131I-VHH 1 h at 4 C, then up to 24 h at 37 C; membrane-bound plus internalized fraction. Here is the method: The in vitro cellular retention of the different His₆- and untagged ¹³¹I-labeled VHHs was assessed on the same cancer cells. In this particular case, human FOLR1^pos SKOV-3 cancer cells were incubated with 10 nM ¹³¹I-labelled VHHs for 1h at 4° C., after which the unbound fraction was collected. A 100-fold excess of the corresponding unlabeled VHH to assess non-specific binding. Next, the cells were incubated with fresh medium up to 24 h at 37° C., after which the dissociated fraction was collected. Afterwards, the cells were washed with 0.05 M glycine pH 2.8 to collect the membrane-bound fraction. Finally, cells were solubilized with 1 M NaOH at room temperature to collect the internalized fraction. The sum of the membrane-bound and internalized fractions corresponds to the total cell-associated fraction.

Experiment [2] addresses T1, human FOLR1 expressed on SKOV-3 ovarian …. The experiment can be described thus: saturation binding of 131I-labelled untagged VHH on SKOV-3 cells.
For experiment [3] the target is unchanged. The description is as above. As for the experimental part: In a first part, their in vitro behaviour was assessed by means of investigating their cellular binding and retention over time. The binding potential of the resulting radioconjugates was assessed to confirm that this was not affected by the introduction of ¹³¹I-SGMIB into the amino acid sequence of the different VHHs. To this, human FOLR1^pos SKOV-3 cancer cells were incubated with serial dilutions with concentrations ranging from 0 to 300 nM of the different ¹³¹I-labelled, His₆ tagged VHHs. A 100-fold excess of the corresponding unlabeled VHH was added in parallel to saturate the human FOLR1 receptors expressed on cancer cells, to assess non-specific binding.
A1 and A2 parental untagged VHH’s and derivatives were radiolabeled with theranostic isotope ¹³¹I, as described in example 3, and subjected to saturation binding studies as described in example 6.
This is another data set of the same source.

Where two headings read alike, the source gives them in different places.

The record followed here is patent US20230340111A1 (published 2023).

T1 sequence (P15328 25-234 limits assumed): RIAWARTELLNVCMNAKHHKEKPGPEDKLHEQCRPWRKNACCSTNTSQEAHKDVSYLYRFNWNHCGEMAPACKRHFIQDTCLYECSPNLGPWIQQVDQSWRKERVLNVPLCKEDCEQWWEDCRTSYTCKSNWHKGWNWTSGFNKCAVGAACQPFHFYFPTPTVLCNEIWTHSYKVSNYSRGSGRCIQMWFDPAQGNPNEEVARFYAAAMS

B1: 131I-labeled untagged VHH A3 (VHH)
VHH: DVQLVESGGGLVQAGGSLRLSCGVSGNMFSMNLMGWYRQPPGKERDWVAVITKDGSTNYADSVKGRFTISRDNAKNTVSLQMNSLKPEDTAVYYCNVQDGSGWIRAWGWDWGQGTQVTVSS
modifications: [131I]SGMIB conjugated to lysine side-chain amine groups
One may read the EC50 as the concentration at which the effect is half-maximal. A lower EC50 goes with greater potency. In the case of B1, the “cell-associated fraction of initial bound activity after 24 h” value in experiment [1] stood at 15%. In experiment [2], this molecule yielded an EC50 of 5.8 nM.

B2: 131I-labeled untagged VHH A1 (VHH)
VHH: DVQLVESGGGLVQPGGSLRLSCAASESIFSRNHMSWYRQAPGKQRELAAIITSDGNTNYPDSVKGRFTISRDNAKNTVYLQMNSLKPEDTAVYYCNTFGRSVAGFYDYWGQGTQVTVSS
modifications: [131I]SGMIB conjugated to lysine side-chain amine groups
For B2, the EC50 stood at 1.1 nM in experiment [3] and 1.2 nM in experiment [2]. Further, in experiment [1], the “cell-associated fraction of initial bound activity after 24 h” value is around 40%.
